Experimental data reported in patent publication US20260209293A1 (Novo Nordisk, published 2026).
*1 amine or outer side, *2 acyl side, *3 side chain or, on linkers, in order; H or OH if unused. The star is where a group is joined. C20 diacid = O=C(O)CCCCCCCCCCCCCCCCCCC(=O)*; C18 diacid = O=C(O)CCCCCCCCCCCCCCCCC(=O)*; γGlu = O=C(O)[C@H](CCC(=O)[*:2])N[*:1]

T1: human amylin-3(a) receptor (human, UniProt P30988 25-474; O60896 24-148)
T1 sequence (looked up) 1: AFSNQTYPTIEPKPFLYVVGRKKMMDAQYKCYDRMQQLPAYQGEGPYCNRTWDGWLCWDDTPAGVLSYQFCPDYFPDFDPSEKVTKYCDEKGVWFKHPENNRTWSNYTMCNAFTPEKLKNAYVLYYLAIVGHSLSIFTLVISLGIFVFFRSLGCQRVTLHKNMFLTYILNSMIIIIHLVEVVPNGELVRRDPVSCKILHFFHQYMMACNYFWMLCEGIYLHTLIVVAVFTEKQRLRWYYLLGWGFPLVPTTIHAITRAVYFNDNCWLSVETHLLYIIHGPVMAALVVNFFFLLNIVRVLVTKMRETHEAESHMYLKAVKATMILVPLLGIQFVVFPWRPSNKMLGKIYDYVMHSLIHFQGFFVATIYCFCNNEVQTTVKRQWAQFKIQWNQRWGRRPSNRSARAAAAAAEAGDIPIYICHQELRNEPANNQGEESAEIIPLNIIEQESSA
T1 sequence (looked up) 2: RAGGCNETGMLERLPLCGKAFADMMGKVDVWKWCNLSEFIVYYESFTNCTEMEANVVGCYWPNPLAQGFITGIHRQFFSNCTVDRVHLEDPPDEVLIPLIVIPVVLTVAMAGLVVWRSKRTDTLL

T2: human calcitonin receptor (a) (human, UniProt P30988 25-474)
T2 sequence (looked up): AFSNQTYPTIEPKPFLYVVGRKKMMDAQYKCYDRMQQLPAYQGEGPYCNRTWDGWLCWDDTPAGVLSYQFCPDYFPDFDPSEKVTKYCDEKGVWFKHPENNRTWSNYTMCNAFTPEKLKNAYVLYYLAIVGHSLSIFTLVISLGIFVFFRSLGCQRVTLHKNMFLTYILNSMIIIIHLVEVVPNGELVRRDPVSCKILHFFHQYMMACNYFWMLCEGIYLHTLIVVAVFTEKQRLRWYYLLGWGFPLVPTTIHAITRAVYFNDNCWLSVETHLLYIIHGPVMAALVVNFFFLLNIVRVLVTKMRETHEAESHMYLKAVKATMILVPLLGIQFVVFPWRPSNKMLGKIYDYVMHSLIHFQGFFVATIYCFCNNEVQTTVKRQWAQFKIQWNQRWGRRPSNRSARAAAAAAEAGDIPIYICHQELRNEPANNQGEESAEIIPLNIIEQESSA


Experiments:
[1] = target: T1, human amylin-3(a) receptor; assay: cell-based or functional assay
[2] = target: T2, human calcitonin receptor (a); assay: cell-based or functional assay

Binder | hAmyR3 potency, EC50 (pM); CRE-luciferase reporter in BHK cells [1] [pM] | hCalcR potency, EC50 (pM); CRE-luciferase reporter in BHK cells [2] [pM]
{C18 diacid-γGlu}-ASHLSTAQTQRLAEFLHHSSEPFGAIPSSTEVGPETP-NH2 (SMILES CC[C@H](C)[C@H](NC(=O)[C@H](C)NC(=O)CNC(=O)[C@H](Cc1ccccc1)NC(=O)[C@@H]1CCCN1C(=O)[C@H](CCC(=O)O)NC(=O)[C@H](CO)NC(=O)[C@H](CO)NC(=O)[C@H](Cc1c[nH]cn1)NC(=O)[C@H](Cc1c[nH]cn1)NC(=O)[C@H](CC(C)C)NC(=O)[C@H](Cc1ccccc1)NC(=O)[C@H](CCC(=O)O)NC(=O)[C@H](C)NC(=O)[C@H](CC(C)C)NC(=O)[C@H](CCCNC(=N)N)NC(=O)[C@H](CCC(N)=O)NC(=O)[C@@H](NC(=O)[C@H](CCC(N)=O)NC(=O)[C@H](C)NC(=O)[C@@H](NC(=O)[C@H](CO)NC(=O)[C@H](CC(C)C)NC(=O)[C@H](Cc1c[nH]cn1)NC(=O)[C@H](CO)NC(=O)[C@H](C)NC(=O)CC[C@H](NC(=O)CCCCCCCCCCCCCCCCC(=O)O)C(=O)O)[C@@H](C)O)[C@@H](C)O)C(=O)N1CCC[C@H]1C(=O)N[C@@H](CO)C(=O)N[C@@H](CO)C(=O)N[C@H](C(=O)N[C@@H](CCC(=O)O)C(=O)N[C@H](C(=O)NCC(=O)N1CCC[C@H]1C(=O)N[C@@H](CCC(=O)O)C(=O)N[C@H](C(=O)N1CCC[C@H]1C(N)=O)[C@@H](C)O)C(C)C)[C@@H](C)O) | 2.68 | 1.78
{C18 diacid-γGlu}-ASELSTAQTQRLAEFLHHFGPILPPTDVGSETP-NH2 (SMILES CC[C@H](C)[C@H](NC(=O)[C@@H]1CCCN1C(=O)CNC(=O)[C@H](Cc1ccccc1)NC(=O)[C@H](Cc1c[nH]cn1)NC(=O)[C@H](Cc1c[nH]cn1)NC(=O)[C@H](CC(C)C)NC(=O)[C@H](Cc1ccccc1)NC(=O)[C@H](CCC(=O)O)NC(=O)[C@H](C)NC(=O)[C@H](CC(C)C)NC(=O)[C@H](CCCNC(=N)N)NC(=O)[C@H](CCC(N)=O)NC(=O)[C@@H](NC(=O)[C@H](CCC(N)=O)NC(=O)[C@H](C)NC(=O)[C@@H](NC(=O)[C@H](CO)NC(=O)[C@H](CC(C)C)NC(=O)[C@H](CCC(=O)O)NC(=O)[C@H](CO)NC(=O)[C@H](C)NC(=O)CC[C@H](NC(=O)CCCCCCCCCCCCCCCCC(=O)O)C(=O)O)[C@@H](C)O)[C@@H](C)O)C(=O)N[C@@H](CC(C)C)C(=O)N1CCC[C@H]1C(=O)N1CCC[C@H]1C(=O)N[C@H](C(=O)N[C@@H](CC(=O)O)C(=O)N[C@H](C(=O)NCC(=O)N[C@@H](CO)C(=O)N[C@@H](CCC(=O)O)C(=O)N[C@H](C(=O)N1CCC[C@H]1C(N)=O)[C@@H](C)O)C(C)C)[C@@H](C)O) | 5.2 | 3.08
{C18 diacid-γGlu-γGlu}-AGSLSTAQTQRLAEFLHHFGPILPPTDVGSETP-NH2 (SMILES CC[C@H](C)[C@H](NC(=O)[C@@H]1CCCN1C(=O)CNC(=O)[C@H](Cc1ccccc1)NC(=O)[C@H](Cc1c[nH]cn1)NC(=O)[C@H](Cc1c[nH]cn1)NC(=O)[C@H](CC(C)C)NC(=O)[C@H](Cc1ccccc1)NC(=O)[C@H](CCC(=O)O)NC(=O)[C@H](C)NC(=O)[C@H](CC(C)C)NC(=O)[C@H](CCCNC(=N)N)NC(=O)[C@H](CCC(N)=O)NC(=O)[C@@H](NC(=O)[C@H](CCC(N)=O)NC(=O)[C@H](C)NC(=O)[C@@H](NC(=O)[C@H](CO)NC(=O)[C@H](CC(C)C)NC(=O)[C@H](CO)NC(=O)CNC(=O)[C@H](C)NC(=O)CC[C@H](NC(=O)CC[C@H](NC(=O)CCCCCCCCCCCCCCCCC(=O)O)C(=O)O)C(=O)O)[C@@H](C)O)[C@@H](C)O)C(=O)N[C@@H](CC(C)C)C(=O)N1CCC[C@H]1C(=O)N1CCC[C@H]1C(=O)N[C@H](C(=O)N[C@@H](CC(=O)O)C(=O)N[C@H](C(=O)NCC(=O)N[C@@H](CO)C(=O)N[C@@H](CCC(=O)O)C(=O)N[C@H](C(=O)N1CCC[C@H]1C(N)=O)[C@@H](C)O)C(C)C)[C@@H](C)O) | 2.37 | 2.07
{C18 diacid-γGlu-γGlu}-ASHLSTAQTQRLAEFLHHFGPILPPTDVGSETY-NH2 (SMILES CC[C@H](C)[C@H](NC(=O)[C@@H]1CCCN1C(=O)CNC(=O)[C@H](Cc1ccccc1)NC(=O)[C@H](Cc1c[nH]cn1)NC(=O)[C@H](Cc1c[nH]cn1)NC(=O)[C@H](CC(C)C)NC(=O)[C@H](Cc1ccccc1)NC(=O)[C@H](CCC(=O)O)NC(=O)[C@H](C)NC(=O)[C@H](CC(C)C)NC(=O)[C@H](CCCNC(=N)N)NC(=O)[C@H](CCC(N)=O)NC(=O)[C@@H](NC(=O)[C@H](CCC(N)=O)NC(=O)[C@H](C)NC(=O)[C@@H](NC(=O)[C@H](CO)NC(=O)[C@H](CC(C)C)NC(=O)[C@H](Cc1c[nH]cn1)NC(=O)[C@H](CO)NC(=O)[C@H](C)NC(=O)CC[C@H](NC(=O)CC[C@H](NC(=O)CCCCCCCCCCCCCCCCC(=O)O)C(=O)O)C(=O)O)[C@@H](C)O)[C@@H](C)O)C(=O)N[C@@H](CC(C)C)C(=O)N1CCC[C@H]1C(=O)N1CCC[C@H]1C(=O)N[C@H](C(=O)N[C@@H](CC(=O)O)C(=O)N[C@H](C(=O)NCC(=O)N[C@@H](CO)C(=O)N[C@@H](CCC(=O)O)C(=O)N[C@H](C(=O)N[C@@H](Cc1ccc(O)cc1)C(N)=O)[C@@H](C)O)C(C)C)[C@@H](C)O) | 5.71 | 15.7
{C20 diacid-γGlu}-ASHLSTAQTQRLAEFLHHFGPILPPTDVGSETP-NH2 (SMILES CC[C@H](C)[C@H](NC(=O)[C@@H]1CCCN1C(=O)CNC(=O)[C@H](Cc1ccccc1)NC(=O)[C@H](Cc1c[nH]cn1)NC(=O)[C@H](Cc1c[nH]cn1)NC(=O)[C@H](CC(C)C)NC(=O)[C@H](Cc1ccccc1)NC(=O)[C@H](CCC(=O)O)NC(=O)[C@H](C)NC(=O)[C@H](CC(C)C)NC(=O)[C@H](CCCNC(=N)N)NC(=O)[C@H](CCC(N)=O)NC(=O)[C@@H](NC(=O)[C@H](CCC(N)=O)NC(=O)[C@H](C)NC(=O)[C@@H](NC(=O)[C@H](CO)NC(=O)[C@H](CC(C)C)NC(=O)[C@H](Cc1c[nH]cn1)NC(=O)[C@H](CO)NC(=O)[C@H](C)NC(=O)CC[C@H](NC(=O)CCCCCCCCCCCCCCCCCCC(=O)O)C(=O)O)[C@@H](C)O)[C@@H](C)O)C(=O)N[C@@H](CC(C)C)C(=O)N1CCC[C@H]1C(=O)N1CCC[C@H]1C(=O)N[C@H](C(=O)N[C@@H](CC(=O)O)C(=O)N[C@H](C(=O)NCC(=O)N[C@@H](CO)C(=O)N[C@@H](CCC(=O)O)C(=O)N[C@H](C(=O)N1CCC[C@H]1C(N)=O)[C@@H](C)O)C(C)C)[C@@H](C)O) | 1.12 | 1.44
{C18 diacid-γGlu}-ASHLSTAQTQRLAEFLHHFGPILPPTDVGSETP-NH2 (SMILES CC[C@H](C)[C@H](NC(=O)[C@@H]1CCCN1C(=O)CNC(=O)[C@H](Cc1ccccc1)NC(=O)[C@H](Cc1c[nH]cn1)NC(=O)[C@H](Cc1c[nH]cn1)NC(=O)[C@H](CC(C)C)NC(=O)[C@H](Cc1ccccc1)NC(=O)[C@H](CCC(=O)O)NC(=O)[C@H](C)NC(=O)[C@H](CC(C)C)NC(=O)[C@H](CCCNC(=N)N)NC(=O)[C@H](CCC(N)=O)NC(=O)[C@@H](NC(=O)[C@H](CCC(N)=O)NC(=O)[C@H](C)NC(=O)[C@@H](NC(=O)[C@H](CO)NC(=O)[C@H](CC(C)C)NC(=O)[C@H](Cc1c[nH]cn1)NC(=O)[C@H](CO)NC(=O)[C@H](C)NC(=O)CC[C@H](NC(=O)CCCCCCCCCCCCCCCCC(=O)O)C(=O)O)[C@@H](C)O)[C@@H](C)O)C(=O)N[C@@H](CC(C)C)C(=O)N1CCC[C@H]1C(=O)N1CCC[C@H]1C(=O)N[C@H](C(=O)N[C@@H](CC(=O)O)C(=O)N[C@H](C(=O)NCC(=O)N[C@@H](CO)C(=O)N[C@@H](CCC(=O)O)C(=O)N[C@H](C(=O)N1CCC[C@H]1C(N)=O)[C@@H](C)O)C(C)C)[C@@H](C)O) | 2.06 | 1.72
{C18 diacid-γGlu-γGlu}-ASHLSTAQTQRLAEFLHHFGPILPPTDVGSETP-NH2 (SMILES CC[C@H](C)[C@H](NC(=O)[C@@H]1CCCN1C(=O)CNC(=O)[C@H](Cc1ccccc1)NC(=O)[C@H](Cc1c[nH]cn1)NC(=O)[C@H](Cc1c[nH]cn1)NC(=O)[C@H](CC(C)C)NC(=O)[C@H](Cc1ccccc1)NC(=O)[C@H](CCC(=O)O)NC(=O)[C@H](C)NC(=O)[C@H](CC(C)C)NC(=O)[C@H](CCCNC(=N)N)NC(=O)[C@H](CCC(N)=O)NC(=O)[C@@H](NC(=O)[C@H](CCC(N)=O)NC(=O)[C@H](C)NC(=O)[C@@H](NC(=O)[C@H](CO)NC(=O)[C@H](CC(C)C)NC(=O)[C@H](Cc1c[nH]cn1)NC(=O)[C@H](CO)NC(=O)[C@H](C)NC(=O)CC[C@H](NC(=O)CC[C@H](NC(=O)CCCCCCCCCCCCCCCCC(=O)O)C(=O)O)C(=O)O)[C@@H](C)O)[C@@H](C)O)C(=O)N[C@@H](CC(C)C)C(=O)N1CCC[C@H]1C(=O)N1CCC[C@H]1C(=O)N[C@H](C(=O)N[C@@H](CC(=O)O)C(=O)N[C@H](C(=O)NCC(=O)N[C@@H](CO)C(=O)N[C@@H](CCC(=O)O)C(=O)N[C@H](C(=O)N1CCC[C@H]1C(N)=O)[C@@H](C)O)C(C)C)[C@@H](C)O) | 2.03 | 2.13
